According to patent publication US20030180895A1:

Experiments:
Assay in all cases: cell-based or functional assay
[1] = target: Bacillus subtilis xylanase A mutant G12F (Bacillus subtilis) (UniProt P18429)
[2] = target: Bacillus subtilis xylanase A mutant D11W (Bacillus subtilis) (UniProt P18429)
[3] = target: Bacillus subtilis xylanase A mutant N29D (Bacillus subtilis) (UniProt P18429)
[4] = target: Bacillus subtilis xylanase A mutant T124D (Bacillus subtilis) (UniProt P18429)
[5] = target: Bacillus subtilis xylanase A mutant G34T (Bacillus subtilis) (UniProt P18429)
[6] = target: Bacillus subtilis xylanase A mutant G34D (Bacillus subtilis) (UniProt P18429)
[7] = target: Bacillus subtilis xylanase A mutant I15K (Bacillus subtilis) (UniProt P18429)
[8] = target: Bacillus subtilis xylanase A mutant T124K (Bacillus subtilis) (UniProt P18429)
[9] = target: Bacillus subtilis xylanase A mutant D121A (Bacillus subtilis) (UniProt P18429)
[10] = target: Bacillus subtilis xylanase A mutant N17D (Bacillus subtilis) (UniProt P18429)
[11] = target: Bacillus subtilis xylanase A mutant N29Y (Bacillus subtilis) (UniProt P18429)
[12] = target: Bacillus subtilis xylanase A mutant S31Y (Bacillus subtilis) (UniProt P18429)
[13] = target: Bacillus subtilis xylanase A mutant G120N (Bacillus subtilis) (UniProt P18429)
[14] = target: Bacillus subtilis xylanase A mutant N114D (Bacillus subtilis) (UniProt P18429)
[15] = target: Bacillus subtilis xylanase A mutant Q175E (Bacillus subtilis) (UniProt P18429)
[16] = target: Thermomyces lanuginosus wildtype xylanase A (Thermomyces lanuginosus) (UniProt O43097)
[17] = target: Bacillus subtilis xylanase A mutant S31K (Bacillus subtilis) (UniProt P18429)
[18] = target: Bacillus subtilis xylanase A mutant D121F (Bacillus subtilis) (UniProt P18429)
[19] = target: Bacillus subtilis xylanase A mutant D119Y (Bacillus subtilis) (UniProt P18429)
[20] = target: Thermomyces lanuginosus xylanase A mutant D19F (Thermomyces lanuginosus) (UniProt O43097)
[21] = target: Bacillus subtilis xylanase A mutant Q175L (Bacillus subtilis) (UniProt P18429)
[22] = target: Bacillus subtilis xylanase A mutant T123K (Bacillus subtilis) (UniProt P18429)
[23] = target: Bacillus subtilis xylanase A mutant D11S (Bacillus subtilis) (UniProt P18429)
[24] = target: Bacillus subtilis xylanase A mutant T123D (Bacillus subtilis) (UniProt P18429)
[25] = target: Bacillus subtilis xylanase A mutant D11F/R122D (Bacillus subtilis) (UniProt P18429)
[26] = target: Bacillus subtilis xylanase A mutant G120K (Bacillus subtilis) (UniProt P18429)
[27] = target: Bacillus subtilis xylanase A mutant N17Y (Bacillus subtilis) (UniProt P18429)

wheat endogenous xylanase inhibitor
Relative inhibition, % at 1, 26 XIU/ml [1]: 110% | Relative inhibition, % at 3, 15 XIU/ml [1]: 106% | Relative inhibition, % at 6, 3 XIU/ml [1]: 100% | Relative inhibition, % at 12, 6 XIU/ml [1]: 92% | Relative inhibition, % at 1, 26 XIU/ml [2]: 101% | Relative inhibition, % at 3, 15 XIU/ml [2]: 88% | Relative inhibition, % at 6, 3 XIU/ml [2]: 70% | Relative inhibition, % at 12, 6 XIU/ml [2]: 50% | Relative inhibition, % at 1, 26 XIU/ml [3]: 74% | Relative inhibition, % at 3, 15 XIU/ml [3]: 44% | Relative inhibition, % at 6, 3 XIU/ml [3]: 26% | Relative inhibition, % at 12, 6 XIU/ml [3]: 20% | Relative inhibition, % at 1, 26 XIU/ml [4]: 87% | Relative inhibition, % at 3, 15 XIU/ml [4]: 52% | Relative inhibition, % at 6, 3 XIU/ml [4]: 32% | Relative inhibition, % at 12, 6 XIU/ml [4]: 25% | Relative inhibition, % at 1, 26 XIU/ml [5]: 99% | Relative inhibition, % at 3, 15 XIU/ml [5]: 99% | Relative inhibition, % at 6, 3 XIU/ml [5]: 93% | Relative inhibition, % at 12, 6 XIU/ml [5]: 86% | Relative inhibition, % at 1, 26 XIU/ml [6]: 94% | Relative inhibition, % at 3, 15 XIU/ml [6]: 83% | Relative inhibition, % at 6, 3 XIU/ml [6]: 70% | Relative inhibition, % at 12, 6 XIU/ml [6]: 53% | Relative inhibition, % at 1, 26 XIU/ml [7]: 84% | Relative inhibition, % at 3, 15 XIU/ml [7]: 47% | Relative inhibition, % at 6, 3 XIU/ml [7]: 28% | Relative inhibition, % at 12, 6 XIU/ml [7]: 23% | Relative inhibition, % at 1, 26 XIU/ml [8]: 110% | Relative inhibition, % at 3, 15 XIU/ml [8]: 92% | Relative inhibition, % at 6, 3 XIU/ml [8]: 73% | Relative inhibition, % at 12, 6 XIU/ml [8]: 57% | Relative inhibition, % at 1, 26 XIU/ml [9]: 81% | Relative inhibition, % at 3, 15 XIU/ml [9]: 50% | Relative inhibition, % at 6, 3 XIU/ml [9]: 27% | Relative inhibition, % at 12, 6 XIU/ml [9]: 21% | Relative inhibition, % at 1, 26 XIU/ml [10]: 90% | Relative inhibition, % at 3, 15 XIU/ml [10]: 81% | Relative inhibition, % at 6, 3 XIU/ml [10]: 50% | Relative inhibition, % at 12, 6 XIU/ml [10]: 22% | Relative inhibition, % at 1, 26 XIU/ml [11]: 85% | Relative inhibition, % at 3, 15 XIU/ml [11]: 49% | Relative inhibition, % at 6, 3 XIU/ml [11]: 30% | Relative inhibition, % at 12, 6 XIU/ml [11]: 24% | Relative inhibition, % at 1, 26 XIU/ml [12]: 83% | Relative inhibition, % at 3, 15 XIU/ml [12]: 50% | Relative inhibition, % at 6, 3 XIU/ml [12]: 27% | Relative inhibition, % at 12, 6 XIU/ml [12]: 22% | Relative inhibition, % at 1, 26 XIU/ml [13]: 84% | Relative inhibition, % at 3, 15 XIU/ml [13]: 49% | Relative inhibition, % at 6, 3 XIU/ml [13]: 29% | Relative inhibition, % at 12, 6 XIU/ml [13]: 23% | Relative inhibition, % at 1, 26 XIU/ml [14]: 84% | Relative inhibition, % at 3, 15 XIU/ml [14]: 57% | Relative inhibition, % at 6, 3 XIU/ml [14]: 39% | Relative inhibition, % at 12, 6 XIU/ml [14]: 29% | Relative inhibition, % at 1, 26 XIU/ml [15]: 87% | Relative inhibition, % at 3, 15 XIU/ml [15]: 59% | Relative inhibition, % at 6, 3 XIU/ml [15]: 40% | Relative inhibition, % at 12, 6 XIU/ml [15]: 31% | Relative inhibition, % at 1, 26 XIU/ml [16]: 45% | Relative inhibition, % at 3, 15 XIU/ml [16]: 24% | Relative inhibition, % at 6, 3 XIU/ml [16]: 17% | Relative inhibition, % at 12, 6 XIU/ml [16]: 14% | Relative inhibition, % at 1, 26 XIU/ml [17]: 77% | Relative inhibition, % at 3, 15 XIU/ml [17]: 42% | Relative inhibition, % at 6, 3 XIU/ml [17]: 23% | Relative inhibition, % at 12, 6 XIU/ml [17]: 23% | Relative inhibition, % at 1, 26 XIU/ml [18]: 101% | Relative inhibition, % at 3, 15 XIU/ml [18]: 89% | Relative inhibition, % at 6, 3 XIU/ml [18]: 72% | Relative inhibition, % at 12, 6 XIU/ml [18]: 60% | Relative inhibition, % at 1, 26 XIU/ml [19]: 87% | Relative inhibition, % at 3, 15 XIU/ml [19]: 50% | Relative inhibition, % at 6, 3 XIU/ml [19]: 28% | Relative inhibition, % at 12, 6 XIU/ml [19]: 22% | Relative inhibition, % at 1, 26 XIU/ml [20]: 73% | Relative inhibition, % at 3, 15 XIU/ml [20]: 38% | Relative inhibition, % at 6, 3 XIU/ml [20]: 24% | Relative inhibition, % at 12, 6 XIU/ml [20]: 20% | Relative inhibition, % at 1, 26 XIU/ml [21]: 78% | Relative inhibition, % at 3, 15 XIU/ml [21]: 42% | Relative inhibition, % at 6, 3 XIU/ml [21]: 25% | Relative inhibition, % at 12, 6 XIU/ml [21]: 23% | Relative inhibition, % at 1, 26 XIU/ml [22]: 80% | Relative inhibition, % at 3, 15 XIU/ml [22]: 46% | Relative inhibition, % at 6, 3 XIU/ml [22]: 30% | Relative inhibition, % at 12, 6 XIU/ml [22]: 25% | Relative inhibition, % at 1, 26 XIU/ml [23]: 98% | Relative inhibition, % at 3, 15 XIU/ml [23]: 81% | Relative inhibition, % at 6, 3 XIU/ml [23]: 60% | Relative inhibition, % at 12, 6 XIU/ml [23]: 38% | Relative inhibition, % at 1, 26 XIU/ml [24]: 83% | Relative inhibition, % at 3, 15 XIU/ml [24]: 36% | Relative inhibition, % at 6, 3 XIU/ml [24]: 20% | Relative inhibition, % at 12, 6 XIU/ml [24]: 17% | Relative inhibition, % at 1, 26 XIU/ml [25]: 109% | Relative inhibition, % at 3, 15 XIU/ml [25]: 111% | Relative inhibition, % at 6, 3 XIU/ml [25]: 110% | Relative inhibition, % at 12, 6 XIU/ml [25]: 109% | Relative inhibition, % at 1, 26 XIU/ml [26]: 85% | Relative inhibition, % at 3, 15 XIU/ml [26]: 52% | Relative inhibition, % at 6, 3 XIU/ml [26]: 29% | Relative inhibition, % at 12, 6 XIU/ml [26]: 22% | Relative inhibition, % at 1, 26 XIU/ml [27]: 79% | Relative inhibition, % at 3, 15 XIU/ml [27]: 42% | Relative inhibition, % at 6, 3 XIU/ml [27]: 23% | Relative inhibition, % at 12, 6 XIU/ml [27]: 19%
